Source: US20110245474A1 (PFENEX, published 2011)

Target: T1, recombinant human granulocyte colony stimulating factor receptor (GCSF-R) (R & D Systems, cat# 381GR/CF), … (human, UniProt Q99062 25-621, limits assumed, biotinylated using NHS-LC-LC-biotin (sites not given))
T1 construct: Bought reagent; also called b-GCSF-R; G-CSF receptor
T1 sequence (looked up): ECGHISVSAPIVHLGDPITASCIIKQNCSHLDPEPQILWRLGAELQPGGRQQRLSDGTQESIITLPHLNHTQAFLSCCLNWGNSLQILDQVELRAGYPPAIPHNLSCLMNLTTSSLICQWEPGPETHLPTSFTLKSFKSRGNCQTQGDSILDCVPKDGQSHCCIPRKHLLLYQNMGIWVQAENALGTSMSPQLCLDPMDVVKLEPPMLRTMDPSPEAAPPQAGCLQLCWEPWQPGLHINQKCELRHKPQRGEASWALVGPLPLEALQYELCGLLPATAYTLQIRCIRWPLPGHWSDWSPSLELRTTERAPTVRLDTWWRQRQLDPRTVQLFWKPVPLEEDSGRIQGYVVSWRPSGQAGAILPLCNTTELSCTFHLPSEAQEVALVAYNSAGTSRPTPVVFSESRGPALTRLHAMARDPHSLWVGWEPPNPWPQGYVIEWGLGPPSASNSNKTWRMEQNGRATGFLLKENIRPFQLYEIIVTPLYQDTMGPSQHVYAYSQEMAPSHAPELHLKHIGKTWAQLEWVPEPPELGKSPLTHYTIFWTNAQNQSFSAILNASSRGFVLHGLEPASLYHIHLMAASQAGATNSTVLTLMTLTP
Test: biolayer interferometry (Octet), biotinylated GCSF-R on streptavidin sensors, soluble lysate fractions, used to quantify the protein against a standard curve
Method: Soluble fractions were prepared by sonication followed by centrifugation. Normalized culture broth samples (400 μL) were sonicated with the Cell Lysis Automated Sonication System (CLASS, Scinomix) with a 24 probe tip horn. The lysates were centrifuged at 14,000×rpm for 20 minutes (4° C.) and the supernatants collected (soluble fraction). Further dilutions of soluble samples for biolayer interferometry analysis were performed in ForteBio's Sample Diluent (PN, described below).
The lyophilized recombinant human granulocyte colony stimulating factor receptor (GCSF-R) (R & D Systems, cat# 381GR/CF) was reconstituted in PBS buffer (Sigma, P3813) to 0.5 mg/mL and biotinylated using NHS-LC-LC-biotin (Pierce, 21343) according to the method described in ForteBio Technical Note: “Biotinylation of Protein for Immobilization onto Streptavidin Sensors.” The biosensors (Streptavidin High Binding FA Biosensors, ForteBio, 18-0009) were hydrated in 1× kinetics buffer (10-fold dilution of 10× Kinetics Buffer, ForteBio, 18-5032 into PBS) for at least 10 minutes. […]
The soluble fraction of the strain array samples were diluted 20-fold into 1× kinetics buffer. […] The samples were read at 200 rpm, 30° C., for 120 sec, and quantitation was calculated from a standard curve at 12, 6, 3, 1.5, 0.75, 0.375, 0.188, and in some cases as low as 0.094 μg/ml.

binding result: binds
B1: recombinant human G-CSF protein comprising an N-terminal methionine (Met-G-CSF), produced in Pseudomonas fluorescens (ligand)
chain: MTPLGPASSLPQSFLLKCLEQVRKIQGDGAALQEKLCATYKLCHPEELVLLGHSLGIPWAPLSSCPSQALQLAGCLSQLHSGLFLYQGLLQALEGISPELGPTLDTLQLDVADFATTIWQQMEELGMAPALQPTQGAMPAFASAFQRRAGGVLVASHLQSFLEVSYRVLRHLAQP
notes: Tested as soluble fraction of P. fluorescens lysates, diluted, not purified; also called hG-CSF
